{"source": "patent US11203621B2", "about": "“PH-responsive proteolysis probe” (RIKEN, priority 2015, dated 2021)", "key": {"[1]": {"test_system": "MEF cells", "assay": "Detection of mitophagy in mammalian cells using mt-SRAI′", "assay_type": "cell-based, Mouse", "details": "30 μM CCCP, 18 hours, MEF cells with mCherry-Parkin, compared to before addition", "procedure": "A construct that expresses mt-SRAI′ was introduced into MEF cells, in an attempt to visualize and detect mitophagy. mt-SRAI/pMCSTRE3G, pEF1α-Tet3G, and mCherry-Parkin/pcDNA3 which is a factor necessary for mitophagy, were introduced, each in an amount of 0.5 μg, into MEF cells with use of Lipofectamine (Registered Trademark) 2000. Six hours after the introduction, the medium was replaced by a nutrient medium containing 1 μg/ml doxycycline. Twenty-four hours later, induction of expression was stopped, and the nutrient medium was replaced by a nutrient medium containing no doxycycline, so that localization and degradation of a probe remaining in the cytoplasm was encouraged. Eighteen hours later, mitophagy was induced with use of 30 μM carbonyl cyanide m-chlorophenylhydrazone (CCCP), and then 18 hours later, the cells were subjected to imaging. […] In performing the imaging and obtaining and analyzing the images, the same conditions as those for the detection of autophagy in fixed mammalian cells were applied. Ratio images were generated in IMD display in a range of 0 to 0.4."}, "[2]": {"test_system": "pepsin", "assay": "Resistance to degradation by acidic protease (incubation in pH 7.0 / pH 4.0 / pH 4.0 + pepsin buffers)", "assay_type": "physicochemical", "procedure": "An Escherichia coli test was conducted which included a treatment of incubating purified recombinant proteins in each of three reaction buffers (pH 7.0/no pepsin, pH 4.0/no pepsin, pH 4.0/0.05% pepsin). The reaction buffers had been prepared as 25 mM HEPES buffer (pH 7.0) or 25 mM acetic acid buffer (pH 4.0) (119 mM NaCl, 2.5 mM KCl, 2 mM CaCl2, 2 mM MgCl2, and 30 mM glucose). A mixture obtained by adding each purified protein to each of the reaction buffers was incubated at 37° C. for 2 hours. The mixture was divided into two, each of which was then subjected to fluorescence intensity measurement and western blotting. The fluorescence intensity measurement was conducted after the pH of the mixture was prepared by diluting the mixture by 200 folds with use of a buffer at pH 7.0. For detection of a protein by means of western blotting, the following antibodies were used. AFFP: a rabbit anti-Azami-Green antibody (MBL, PM052M). EGFP and Ypet: a rabbit anti-GFP antibody (CST, #2555).\nWith use of SRAI/pRSETB, the same procedure as the fluorescence intensity measurement in the item <Confirmation of resistance to degradation by acidic protease> was carried out. Fluorescence intensity measurement was conducted by irradiating the AFFP part in SRAI with excitation light of 410 nm and irradiating the Ypet part in SRAI with excitation light of 500 nm.\nExperiments were conducted to determine whether or not a probe (Rosella) reported by Rosado et al. was suitable for measuring autophagy as compared with SRAI. A construct of Rosella was expressed in Escherichia coli, and a recombinant fluorescent protein was purified. The recombinant fluorescent protein was incubated for 2 hours at 37° C. in a reaction buffer at pH 7.0, a reaction buffer at pH 4.0 (with 0.05% pepsin), and a reaction buffer at pH 4.0 (without 0.05% pepsin) in accordance with a previous report (Katayama, H, et al. (2008) Cell Struct. Funct. 33, 1-12), and was subjected to fluorescence measurement. Before the fluorescence measurement, pHs of these samples were adjusted to coincide with each other by diluting each sample with a buffer (pH 7.0) by 200 folds. The reaction buffers had each been prepared as 25 mM HEPES buffer (pH 7.0) or 25 mM acetic acid buffer (pH 4.0) (119 mM NaCl, 2.5 mM KCl, 2 mM CaCl2, 2 mM MgCl2, and 30 mM Glucose)."}, "[3]": {"test_system": "MEF cells", "assay": "Detection of autophagy in mammalian cells (ratio imaging)", "assay_type": "cell-based, Mouse", "details": "living MEF cells, HBSS 37° C. 2 hours", "procedure": "SRAI/pcDNA3 was introduced into MEF cells so as to express SRAI therein, and whether or not SRAI was suitable for observation of autophagy was evaluated. As a control, mCherry-EGFP was used. In order for mCherry-EGFP to be equivalent to an amino acid sequence presented in a previous report (Elsa-Noah N'Diaye, et al., (2009) EMBO reports 10, 173-179), (i) a BamHI/HindIII fragment of mCherry, which fragment contained no stop codon, (ii) a HindIII/EcoRI fragment of EGFP, in which fragment cDNA encoding a linker ([…]) (SEQ ID NO: 6) at N-terminus was added, and (iii) a BamHI/EcoRI fragment of pcDNA3 were ligated with each other, thereby producing mCherry-EGFP/pcDNA3. […]\nIn imaging, Cool SNAP HQ2 (Photometrics) was used as a camera, UplanF1 40× oil N.A.1.30 (Olympus) was used as an objective lens, and U-MCFPH Q (for AFFP), U-MYFPH Q (for Ypet), U-MRFPH Q (for mCherry), and U-MGFPH Q (for EGFP) were used as filter cubes (each cube is manufactured by Olympus). Images were obtained and analyzed with use of MetaMorph (Universal Imaging Corporation). […]\nFurther, Rosella was introduced into MEF cells in an attempt to visualize and detect autophagy. […] Images were obtained and analyzed with use of MetaMorph (Universal Imaging Corporation), and ratio images were produced as DsRed.T3/SE P in IMD display in a range of 0 to 1 (the scale bar for FIG. 12 is 20 μm)."}, "[4]": {"test_system": "MEF cells", "assay": "Detection of autophagy in fixed mammalian cells", "assay_type": "cell-based, Mouse", "details": "MEF cells fixed 15 minutes in PBS containing 4% PFA", "procedure": "Subsequently, examination was conducted to examine whether or not SRAI would detection of autophagy also in fixed cells. The same operations as those of the autophagy detection above were conducted, except that (i) only SRAI was observed and (ii) after observation of living cells, the cells were fixed and observed again in the same field of view. The living cells were fixed for 15 minutes at room temperature in PBS containing 4% PFA, and cells thus fixed were subjected to washing with use of HBSS (5 minutes×3 times) and then subjected to observation for the second time."}, "[5]": {"assay": "Escherichia coli test: fluorescence intensity of purified recombinant proteins", "assay_type": "physicochemical", "details": "expressed at 18° C., buffer at pH 7.0, equal protein concentration", "procedure": "AFFP and mAG407 were expressed in Escherichia coli (18° C.) and a mammalian cell (Mouse embryonic fibroblast (MEF) cell) (37° C.) so as to be compared with each other in terms of fluorescence intensity. Comparison of fluorescence intensity between AFFP and mAG407 which were expressed in Escherichia coli was conducted in accordance with a previous report (Katayama, H, et al., (2008) Cell Struct. Funct. 33, 1-12). The concentrations of purified recombinant proteins were adjusted to coincide with each other, and the fluorescence intensity of each fluorescent protein was measured in a buffer at pH 7.0. A test conducted with respect to a protein expressed in Escherichia coli in accordance with the aforementioned Katayama, H, et al. will be hereinafter simply referred to as “Escherichia coli test.”\nBoth in the Escherichia coli test and the MEF cell test, AFFP was excited with use of excitation light having an excitation peak wavelength (406 nm) and mAG407 was excited with use of excitation light having an excitation peak wavelength (407 nm), in the measurement of fluorescence intensity. Further, both in the Escherichia coli test and the MEF cell test, the intensity of fluorescence emitted from AFFP was set to 1 in numerical representation and plotting of fluorescence intensity."}, "[6]": {"assay": "Escherichia coli test: pH dependency of fluorescence intensity", "assay_type": "physicochemical", "procedure": "As a control for AFFP, a protein was selected as appropriate from green fluorescent proteins (EGFP and Sapphire), a yellow fluorescent protein (Ypet), and red fluorescent proteins (mCherry and Tag-RFP).\nWith use of EGFP and mCherry as controls, an Escherichia coli test was conducted to examine pH dependency of a change in fluorescence intensity of AFFP. In the Escherichia coli test, fluorescence intensity of a purified recombinant protein obtained was measured under nine pH conditions ranging from pH 4.0 to 8.0 with an increment of 0.5. The fluorescence intensity of each fluorescent protein under each pH condition was plotted. Note that the plotting was performed in such a manner that a maximum fluorescence intensity of each fluorescent protein was set to 1, and fluorescence intensities of the fluorescent protein under other pH conditions were plotted as relative values with respect to 1.\nWith use of EGFP, Sapphire, Ypet, mCherry, and Tag-RFP as controls, an Escherichia coli test was conducted to examine pH dependency of a change in fluorescence intensity of AFFP. In the Escherichia coli test, fluorescence intensities in respective cases of pH 7.0 and pH 4.0 were measured. Then, fluorescence intensities of the fluorescent proteins under the two pH conditions were compared. Note that the fluorescence intensity of each protein at pH 7.0 was set to 1. […]"}, "[7]": {"details": "acidic condition (pH 4.0/no pepsin)"}, "[8]": {"details": "acidic condition with pepsin added (pH 4.0/0.05% pepsin)"}, "[9]": {"details": "neutral condition (pH 7.0/no pepsin)"}}}
{"molecule": "N#CC(C#N)=NNc1cccc(Cl)c1", "note": "[CCCP, carbonyl cyanide m-chlorophenylhydrazone]", "values": [{"measurement": "mitophagy induction (red points in ratio images)", "setting": "[1]", "value": "significant increase of red points"}]}
{"molecule": "SRAI: FRET probe obtained by ligating Ypet, a (GGGGS)3 linker, and AFFP in this order", "values": [{"measurement": "fluorescence spectrum, excitation 410 nm", "setting": "[2]; [7]", "value": "reduction in peak of fluorescence from Ypet"}, {"measurement": "fluorescence spectrum, excitation 500 nm", "setting": "[2]; [7]", "value": "single weak peak"}, {"measurement": "fluorescence spectrum, excitation 410 nm", "setting": "[2]; [8]", "value": "only a single peak that was based on fluorescence from AFFP"}, {"measurement": "fluorescence spectrum, excitation 500 nm", "setting": "[2]; [8]", "value": "no fluorescence"}, {"measurement": "fluorescence spectrum, excitation 410 nm", "setting": "[2]; [9]", "value": "two peaks"}, {"measurement": "fluorescence spectrum, excitation 500 nm", "setting": "[2]; [9]", "value": "single intense peak"}, {"measurement": "autophagy signal (bright points, high-ratio structures in ratio image)", "setting": "[3]", "value": "a bright point (dot) and a red point in a ratio image were observed"}, {"measurement": "autophagy signal before and after fixation", "setting": "[4]", "value": "little change was observed"}]}
{"molecule": "AFFP: modified mAG407 further having mutations T58S, V60S, T82A, R184S, K199E, Y210C, Y217A; green fluorescent protein used as FRET donor (protein) MVSVIKPEMKIKLCMRGTVNGHNFVIEGEGKGNPYEGTQILDLNVTEGAPLPFAYDILSTSFQYGNRAFTKYPADIQDYFKQAFPEGYHWERSMTYEDQGICTATSNISMRGDCFFYDIRFDGTNFPPNGPVMQKKTLKWEPDTEKMYVEDGVLKGDVNMRLLLEGGGHYRCDVKTTYKAKKEVSLPDAHKIDHRIEILEHDKDYNKVKLCENAVARASMLPSQAK", "values": [{"measurement": "degradation by acidic protease (western blotting, fluorescence)", "setting": "[2]; pH 4.0/0.05% pepsin, 37° C., 2 hours", "value": "not degraded by acidic protease"}, {"measurement": "fluorescence intensity relative to mAG407", "setting": "[5]", "value": 2.5, "unit": "times"}, {"measurement": "pH dependency of fluorescence intensity", "setting": "[6]; nine pH conditions, pH 4.0 to 8.0, controls EGFP and mCherry", "value": "substantially constant fluorescence intensity"}, {"measurement": "fluorescence intensity at pH 4.0 versus pH 7.0", "setting": "[6]; pH 7.0 set to 1, controls EGFP, Sapphire, Ypet, mCherry, Tag-RFP", "value": "not affected by a change in pH"}]}
